# Source: US9611285B2, “Fucosyltransferases and their applications” (Jennewein Biotechnologie GmbH, priority 2011, dated 2017)
# B1: WbgL: alpha-1,2-fucosyltransferase WbgL from E. coli O126 (SEQ ID No. 2), expressed from pACYC-wbgL (protein, listed as Escherichia coli)
# chain: MSIIRLQGGLGNQLFQFSFGYALSKINGTPLYFDISHYAENDDHGGYRLNNLQIPEEYLQYYTPKINNIYKLLVRGSRLYPDIFLFLGFCNEFHAYGYDFEYIAQKWKSKKYIGYWQSEHFFHKHILDLKEFFIPKNVSEQANLLAAKILESQSSLSIHIRRGDYIKNKTATLTHGVCSLEYYKKALNKIRDLAMIRDVFIFSDDIFWCKENIETLLSKKYNIYYSEDLSQEEDLWLMSLANHHIIANSSFSWWGAYLGSSASQIVIYPTPWYDITPKNTYIPIVNHWINVDKHSSC
# B2: His6-Propeptide-WbgL: recombinant WbgL with N-terminal His-Tag and S. hyicus lipase propeptide (513 amino acids), expressed from pETHIS6PropwbgL in E. coli (protein)
# chain: NDSTTQTTTPLEVAQTSQQETHTHQTPVTSLHTATPEHVDDSKEATPLPEKAESPKTEVTVQPSSHTQEVPALHKKTQQQPAYKDKTVPESTIASKSVESNKATENEMSPVEHHASNVEKREDRLETNETTPPSVDREFSHKIINNTHVNPKTDGQTNVNVDTKTIDTVSPKDDRIDTAQPKQVDVPKENTTAQNKFTSQASDKKPTMSIIRLQGGLGNQLFQFSFGYALSKINGTPLYFDISHYAENDDHGGYRLNNLQIPEEYLQYYTPKINNIYKLLVRGSRLYPDIFLFLGFCNEFHAYGYDFEYIAQKWKSKKYIGYWQSEHFFHKHILDLKEFFIPKNVSEQANLLAAKILESQSSLSIHIRRGDYIKNKTATLTHGVCSLEYYKKALNKIRDLAMIRDVFIFSDDIFWCKENIETLLSKKYNIYYSEDLSQEEDLWLMSLANHHIIANSSFSWWGAYLGSSASQIVIYPTPWYDITPKNTYIPIVNHWINVDKHSSC
# modifications: left off: small tags and cut ends
# notes: recombinant WbgL with N-terminal His-Tag and S. hyicus lipase propeptide (513 amino acids), expressed from pETHIS6PropwbgL in E. coli
# Tests used:
# [1] = tested on: C[C@@H]1O[C@H](OP(=O)(O)OP(=O)(O)OC[C@H]2O[C@@H](n3cnc4c(=O)[nH]c(N)nc43)[C@H](O)[C@@H]2O)[C@@H](O)[C@H](O)[C@@H]1O; experiment: Kinetic analysis by photometric pyruvate kinase/lactate dehydrogenase assay (initial rates, Michaelis-Menten); assay type: biochemical, Escherichia coli O126; details: other: lactose varied 0.05 to 40 mM at 2 mM GDP-beta-L-fucose, GDP-beta-L-fucose varied 0.02 to 4 mM at 10 mM lactose, 30° C., pH 7.6
# Procedure: (§1) The photometric assay was performed using the pyruvate kinase/lactate dehydrogenase system for the detection of released GDP (Barratt, D. H., L. Barber, et al. (2001). “Multiple, distinct isoforms of sucrose synthase in pea.” Plant Physiology 127(2): 655-664.). The reaction mixture for the microtiter plate assay contained 50 mM Tris-HCl pH 7.6, 2 mM GDP-beta-L-fucose, 5 mM Lactose, 1 mM phosphoenolpyruvate, 1 mM DTT, 0.25 mM NADH, 2 mM MnCl2, 5 U pyruvate kinase, and 5 U lactate dehydrogenase in a total volume of 250 μl. The reaction was started by addition of 100 μl enzyme solution and followed at 340 nm at 30° C. Control experiments for the detection of side activities were done without acceptor substrate lactose (see FIG. 5).
# (§2) For both, HPAEC-PAD and photometric assays, 1 U of His6-Propeptide-WbgL is the amount of enzyme which produces 1 μmol product (GDP or 2′-fucosyllactose) per minute under standard assay conditions.
# (§3) The kinetic constants of His6-Propeptide-WbgL for the acceptor substrate lactose and the donor substrate GDP-beta-L-fucose were derived from initial rate analysis at a variable substrate concentrations using the photometric assay described above. GDP-beta-L-fucose was varied from 0.02 mM to 4 mM at a constant concentration of 10 mM lactose and lactose was altered from 0.05 to 40 mM at a constant concentration of 2 mM GDP-beta-L-fucose. All data were determined by non linear-regression analysis according to the Michaelis-Menten equation using the Sigma Plot 10 software (SPSS Science Software GmbH, Erkrath, Germany).
# [2] = tested on: OC[C@H]1O[C@@H](O[C@H]2[C@H](O)[C@@H](O)C(O)O[C@@H]2CO)[C@H](O)[C@@H](O)[C@H]1O; experiment: as above; assay type: biochemical, Escherichia coli O126; details: other: lactose varied 0.05 to 40 mM at 2 mM GDP-beta-L-fucose, GDP-beta-L-fucose varied 0.02 to 4 mM at 10 mM lactose, 30° C., pH 7.6
# Procedure: as §1, §2, §3
# [3] = tested on: alpha-1,2-fucosyltransferase His6-Propeptide-WbgL; experiment: Acceptor substrate spectrum by HPAEC-PAD activity assay; assay type: biochemical, Escherichia coli O126; details: acceptor substrate instead of 5 mM lactose; 2 mM GDP-β-L-fucose; relative to lactose
# Procedure: (§4) Enzyme activity was also determined by HPAEC-PAD analysis for detection of 2′-fucosyllactose. The assay solution contained 2 mM GDP-β-L-fucose, 5 mM lactose, 50 mM Tris-HCl pH 7.6 with 2 mM MnCl2, 1 mM DTT, 1 U alkaline phosphatase in a total volume of 175 μl and was incubated at 30° C. after the addition of […] and purified enzyme solution. The reaction was stopped by heating for 5 min at 95° C. at different time points where the conversion rate was linear. The centrifuged samples were analysed by Dionex HPAEC-PAD (Dionex Corporation, Sunnyvale, Calif., USA) on CarboPac PA1 column using Chromeleon™ 6.40 Software. The elution was carried out with 50 mM NaOH at 30° C. (flow rate 1 mL/min, 50 μL injection volume). The concentration of the generated trisaccharide 2′-fucosyllactose was determined by a standard calibration curve with commercially available 2′-fucosyllactose and used for subsequent calculation of enzyme activity (see FIG. 6).
# as §2
# The substrate spectrum of recombinant His6-Propeptide-WbgL was analysed by HPAEC-PAD according to activity assay described above. Instead of 5 mM lactose different acceptor substrates were tested to determine the relative activity compared to lactose.
# [4] = tested on: E. coli BL21(DE3) ΔlacZ pDEST14-fkp pCOLA-lacY-fucP; experiment: Production of 2'-fucosyllactose in recombinant E. coli expressing a fucosyltransferase (HPLC); assay type: cell-based, Escherichia coli
# Procedure: Cells E. coli BL21(DE3) ΔlacZ pDEST14-fkp pCOLA-lacY-fucP were transformed with pACYCDuet-1 carrying the appropriate fucosyltransferase gene. Colonies were grown on 2YT plates with the appropriate antibiotics. 5 ml over night cultures (2YT with antibiotics) were grown of each strain and from this cultures 15 ml mineral medium each were inoculated to 1%. Cells were grown using glycerol as carbon source and at OD600=0.5 were induced with 0.1 mM IPTG and 40 mM lactose and 30 mM fucose were added. Cultures were incubated at 30° C. and 120 rpm. Production of 2′-fucosyllactose was monitored HPLC analysis. The comparison of the amount of 2′-fucosyllactose (2′-FL) produced by expression of FucT2 from Helicobacter pylori compared to the expression of WbgL from Escherichia coli O126 is shown in the following table 1: […]
# [5] = pH optimum and metal ion dependency of the enzyme (HPAEC-PAD assay); assay type: biochemical
# Procedure: as §4
# To study the optimal pH value for the activity of recombinant His6-Propeptide-WbgL, assays were performed at different pH values of a 50 mM Tris-HCl buffer ranging from pH 6.8 to 8.4. Optimal pH value was 7.6 (see. FIG. 8). Addition of metal ions Mn^2+ to standard assays allowed to investigate the metal ion dependency. All samples were analyzed HAPAEC-PAD as described above.
molecule,measurement,setting,value
"recombinant alpha-1,2-fucosyltransferase His6-Propeptide-WbgL (Escherichia coli)",Km,[1],270 µM
same,Vmax,[1],0.167 µmol/min/mg
same,Vmax/Km,[1],618 µL/min/mg
same,Km,[2],5300 µM
same,Vmax,[2],0.17 µmol/min/mg
same,Vmax/Km,[2],32 µL/min/mg
CC(=O)N[C@H]1C(O)O[C@H](CO)[C@@H](O[C@@H]2O[C@H](CO)[C@H](O)[C@H](O)[C@H]2O)[C@@H]1O (stereo partly shown) [LacNAc Typ II],Relative activity,[3],95%
OC[C@H]1O[C@@H](O[C@H]2[C@H](O)[C@@H](O)[C@H](OCc3ccccc3)O[C@@H]2CO)[C@H](O)[C@@H](O)[C@H]1O [β-Benzyl-Lactose],Relative activity,[3],50%
OC[C@H]1O[C@@H](O[C@@H]2[C@@H](CO)OC(O)(CO)[C@H]2O)[C@H](O)[C@@H](O)[C@H]1O (mixture of isomers) [Lactulose],Relative activity,[3],124%
O=C[C@H](O)[C@@H](O)[C@@H](O)[C@H](O)CO [D-Galactose],Relative activity,[3],71%
OC[C@H]1O[C@@H](O[C@H]2[C@H](O)[C@@H](O)C(O)O[C@@H]2CO)[C@H](O)[C@@H](O)[C@H]1O (stereo partly shown) [Lactose],Relative activity,[3],100%
CC(=O)N[C@@H]1[C@@H](O[C@@H]2O[C@H](CO)[C@H](O)[C@H](O)[C@H]2O)[C@H](O)[C@@H](CO)O[C@@H]1O [LacNAc Typ I],Relative activity,[3],28%
CC(=O)N[C@H]1C(O)O[C@H](CO)[C@H](O)[C@@H]1O (stereo partly drawn) [D-GalNAc],Relative activity,[3],0%
N[C@H]1C(O)O[C@H](CO)[C@H](O)[C@@H]1O (stereo partly drawn) [D-GalNH2],Relative activity,[3],0%
CC(=O)NC1C(O)OC(CO)C(OC2OC(CO)C(O)C(O)C2NC(C)=O)C1O (stereo not shown) [LacDiNAc],Relative activity,[3],0%
B1,Yield 2′-FL,"[4]; 0.1 mM IPTG, 40 mM lactose, 30 mM fucose, 30° C., 120 rpm",4.05 mM
same,Amount of fucosylated product 2′-fucosyllactose compared to FucT2 from Helicobacter pylori,[4]; same cultures as Table 3,significantly higher
B2,Optimal pH value,"[5]; 50 mM Tris-HCl buffer, pH 6.8 to 8.4",7.6
same,Metal ion dependency (Mn^2+),[5]; addition of Mn^2+ to standard assays,not dependent on Mn^2+ ions
